First the molecules themselves.
B1: CCDC22 DBD (280-446), untagged (domain or fragment, human, UniProt O60826 280-446, looked up)
chain: GAGAKTGAPKGSRFTHSEKFTFHLEPQAQATQVSDVPATSRRPEQVTWAAQEQELESLREQLEGVNRSIEEVEADMKTLGVSFVQAESECRHSKLSTAEREQALRLKSRAVELLPDGTANLAKLQLVVENSAQRVIHLAGQWEKHRVPLLAEYRHLRKLQDCRELES
notes: CCDC22, human, DBD; source: E. coli BL21 (DE3) T1R, purified, MBP removed with TEV; not shown: MBP, N-terminal, cleaved

Common to all, as to conditions: both partners purified
Assay [1] addresses T1, DENND10, full length, His6 tag removed (human, UniProt Q8TCE6 1-357).
T1 construct: DENND10 (FAM45A), human, codon-optimised gene; source: E. coli BL21 (DE3) T1R, purified (Source 15Q, TEV cleavage, Source 15Q); not shown: His6, N-terminal, cleaved
Nature of the assay: SEC; untagged DBD dimer and DENND10, alone and mixed; Superdex 200, 100 mM NaCl, 10 mM HEPES pH 7.0, 5% glycerol, 1 mM DTT; SDS-PAGE of fractions.

Assay [2] has as its target T2, His6-Tev-DENND10, full length (pull-down prey) (human, UniProt Q8TCE6 1-357).
T2 construct: DENND10 (FAM45A), human, codon-optimised gene; source: E. coli BL21 (DE3) T1R, purified (Ni-NTA, Source 15Q, Superdex Increase 200)
In words: pull-down; MBP-tagged DBD dimer (200 pmol) as bait on amylose beads, DENND10 (500 pmol) as prey; 10 mM HEPES pH 7, 150 mM NaCl, 5% glycerol, 0.05% Triton X-100, 5 mM beta-mercaptoethanol, 4 °C, 30 min; Coomassie.

In assay [3] the target is B1. In words: SEC; untagged DBD dimer and DENND10, alone and mixed; Superdex 200, 100 mM NaCl, 10 mM HEPES pH 7.0, 5% glycerol, 1 mM DTT; SDS-PAGE of fractions.
Another assay concerns the target T3, MBP-CCDC22 (280-446) (human, UniProt O60826 280-446).
T3 construct: CCDC22, human, DBD; also called MBP-CCDC22 DBD; source: E. coli BL21 (DE3) T1R, purified (amylose); not shown: MBP, N-terminal, kept
In words: reconstitution by mixing and co-purification; amylose-purified MBP-tagged CCDC22 and CCDC93 fragments mixed about 1:1, overnight at 4 °C, then Source 15Q and Superdex 200.

T1 sequence (Q8TCE6 whole entry): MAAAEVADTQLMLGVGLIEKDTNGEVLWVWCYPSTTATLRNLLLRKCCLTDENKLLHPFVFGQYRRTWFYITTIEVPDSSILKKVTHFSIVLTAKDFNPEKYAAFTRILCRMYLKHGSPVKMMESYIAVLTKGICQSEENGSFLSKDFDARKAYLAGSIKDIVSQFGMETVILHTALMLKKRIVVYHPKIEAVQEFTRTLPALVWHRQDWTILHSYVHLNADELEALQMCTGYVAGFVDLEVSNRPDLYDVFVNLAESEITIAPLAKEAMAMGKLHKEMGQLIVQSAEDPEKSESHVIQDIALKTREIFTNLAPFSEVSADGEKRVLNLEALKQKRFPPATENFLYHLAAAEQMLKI
T2 sequence (Q8TCE6 whole entry): as above

As to B1, the binding result in assay [1] is listed as “binds”.

B2: MBP-tagged CCDC22-CCDC93 DBD dimer (complex, human)
chain 1: GAGAKTGAPKGSRFTHSEKFTFHLEPQAQATQVSDVPATSRRPEQVTWAAQEQELESLREQLEGVNRSIEEVEADMKTLGVSFVQAESECRHSKLSTAEREQALRLKSRAVELLPDGTANLAKLQLVVENSAQRVIHLAGQWEKHRVPLLAEYRHLRKLQDCRELES
chain 2: SPEKLGTSQLHRRKVISLNKQIAQKTKHLEELRASHTSLQARYNEAKKTLTELKTYSEKLDKEQAALEKIESKADPSILQNLRALVAMNENLKSQEQEFKAHCREEMTRLQQEIENLKAERAPRGDEKT
notes: CCDC22, human, DBD (CC1, CC2a); CCDC93, human, DBD (CC1, CC2a); also called DBD heterodimer; source: E. coli BL21 (DE3) T1R, purified (amylose, mixed about 1:1, Source 15Q, Superdex 200); not shown: MBP, N-terminal, kept
In the case of B2, in assay [2], the binding result is reported as “binds”.

B3: MBP-tagged CCDC22-CCDC93 DBD dimer, CCDC93 E410R (complex, human)
chain 1: GAGAKTGAPKGSRFTHSEKFTFHLEPQAQATQVSDVPATSRRPEQVTWAAQEQELESLREQLEGVNRSIEEVEADMKTLGVSFVQAESECRHSKLSTAEREQALRLKSRAVELLPDGTANLAKLQLVVENSAQRVIHLAGQWEKHRVPLLAEYRHLRKLQDCRELES
chain 2: SPEKLGTSQLHRRKVISLNKQIAQKTKHLEELRASHTSLQARYNEAKKTLTELKTYSEKLDKEQAALEKIESKADPSILQNLRALVAMNENLKSQEQEFKAHCRERMTRLQQEIENLKAERAPRGDEKT
notes: CCDC22, human, DBD; CCDC93, human, DBD; source: E. coli BL21 (DE3) T1R, purified; not shown: MBP, N-terminal, kept
For B3, the binding result in assay [2] was “binds”.

B4: CCDC93 DBD (305-433), untagged (domain or fragment, human, UniProt Q567U6 305-433, looked up)
chain: SPEKLGTSQLHRRKVISLNKQIAQKTKHLEELRASHTSLQARYNEAKKTLTELKTYSEKLDKEQAALEKIESKADPSILQNLRALVAMNENLKSQEQEFKAHCREEMTRLQQEIENLKAERAPRGDEKT
notes: CCDC93, human, DBD; source: E. coli BL21 (DE3) T1R, purified, MBP removed with TEV; not shown: MBP, N-terminal, cleaved
Turning to B4, the binding result in assay [3] and in assay [1] was “binds” each time.

B5: MBP-CCDC93 (305-433) (domain or fragment, human, UniProt Q567U6 305-433, looked up)
chain: SPEKLGTSQLHRRKVISLNKQIAQKTKHLEELRASHTSLQARYNEAKKTLTELKTYSEKLDKEQAALEKIESKADPSILQNLRALVAMNENLKSQEQEFKAHCREEMTRLQQEIENLKAERAPRGDEKT
notes: CCDC93, human, DBD; also called MBP-CCDC93 DBD; source: E. coli BL21 (DE3) T1R, purified (amylose); not shown: MBP, N-terminal, kept
Turning to B5, in the assay with MBP-CCDC22 (280-446), the binding result is “binds”.

(Values after publication PMC10312975 (Research Square, 2023).)
